T1: cynomolgus Tim-3 expressed on CHO cells (cynomolgus monkey)
T1 construct: also called cTim-3; Cyno Tim-3 (CHO)
T1 chain: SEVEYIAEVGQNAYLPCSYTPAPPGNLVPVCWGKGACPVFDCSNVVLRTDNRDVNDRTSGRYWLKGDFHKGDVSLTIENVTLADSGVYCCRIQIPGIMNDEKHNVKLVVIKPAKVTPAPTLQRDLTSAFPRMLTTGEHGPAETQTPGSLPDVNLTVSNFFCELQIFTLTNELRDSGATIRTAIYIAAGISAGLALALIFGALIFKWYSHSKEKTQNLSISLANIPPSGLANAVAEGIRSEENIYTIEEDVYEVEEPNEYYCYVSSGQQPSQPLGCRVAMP


Assays:
[1] = molecular target: T1, cynomolgus Tim-3 expressed on CHO cells; test: flow cytometry, CHO-cyno Tim-3 cells
[2] = molecular target: T2, human PD-1 expressed on CHO cells (human, UniProt Q15116 25-288); test: flow cytometry, CHO-human PD-1 cells
T2 construct: also called hPD-1; CHO-hPD-1

[3] = molecular target: T3, recombinant human Tim-3-Fc (R&D Systems, 2365-TM) (human, UniProt Q8TDQ0 22-202, biotinylated in the Galectin-9 competition ELISA (sites not given)); test: AlphaLISA bridging: Tim-3-Fc acceptor beads + PD-1 donor beads (signal needs both)
T3 construct: Bought protein; also called huTim-3-Fc; biotinylated Tim-3-Fc; not shown: Fc of the bought fusion protein

[4] = molecular target: T4, human Tim-3 expressed on the cell surface (human, UniProt Q8TDQ0 22-301); test: flow cytometry, CHO-human Tim-3 cells
T4 construct: also called hTim-3; Human Tim-3 (CHO)

[5] = molecular target: T5, biotinylated recombinant human PD-1 (AcroBiosystems) (human, UniProt Q15116 25-167, limits assumed, biotinylated (sites not given)); test: competition, flow cytometry: biotin-PD-1 binding to CHO-human PD-L1 cells
T5 construct: Bought protein; also called biotinylated PD-1

[6] = molecular target: T1, cynomolgus Tim-3 expressed on CHO cells; test: cell binding, CHO-cyno Tim-3 cells
[7] = molecular target: T4, human Tim-3 expressed on the cell …; test: cell binding, CHO-human Tim-3 cells
[8] = molecular target: T6, human Tim-3 (Biacore analyte; TIM-3-Fc or TIM-3-HIS, not said which) (human, UniProt Q8TDQ0 22-202); test: kinetics; method and analyte not given
T6 construct: also called TIM-3 antigen; not shown: Fc or HIS tag

| Binder | Kd [1] [nM] | Kd [2] [nM] | EC50 [3] [nM] | Kd [4] [nM] | IC50 [5] [nM] | binding result [6] | binding result [7] | Kd [8] [nM] | koff [8] [s⁻¹] | kon [8] [M⁻¹ s⁻¹] |
| --- | --- | --- | --- | --- | --- | --- | --- | --- | --- | --- |
| 1353-G10-scFv × 1649-A01-Fab (bispecific antibody, V domains shown, scFv-Fc × Fab bi-specific; also called Sample C; protein sample C) VH 1: EVQLVQSGAEVKKPGASVKVSCKASGYRFPHYGISWVRQAPGQGLEWMGWISAYNGNTNYAQKLQGRVTMTTDTSTNTAYMELRSLRSDDTAVYYCARDVDYGTGSGYWGQGTLVTVSS VL 1: SYELTQPPSVSVSPGQTARITCSGDALPKQYAYWYQQKPGQAPVMVIYKDTERPSGIPERFSGSSSGTKVTLTISGVQAEDEADYYCQSADNSITYRVFGGGTKVTVL VH 2: EVQLVESGGGLVQPGGSLRLSCAASGFNISRYYIHWVRQAPGKGLEWVAGITPVRGYTEYADSVKDRFTISADTSKNTAYLQMNSLRAEDTAVYYCARGYVYRMWDSYDYWGQGTLVTVSS VL 2: not shown | 29 | 1.3 | 0.05 | 4.4 | 11 |  |  |  |  |  |
| Mouse hybridoma clone 2D5 (antibody, V domains shown, Mouse antibody; also called 421.51.2.2D5.5E9) VH: EVQLQQSGPELVKPGTSMKISCRASGYPFIGYTMNWVKQSHGGNLEWIGLINPYNGITTYNQKFKGRATLSVDTSSTIAYMELLSLTSDDSAEYYCARSFFYGSSNDWLVYWGQGTLVTVSA VL: DVLMTQTPLSLPVSLGDQASISCRSSQSIVHTNGNTYLEWYLQKPGQSPKLLIYKVSNRFSGVPDRFSGSGSGTDFTLKISRVEAEDLGVYYCFQGSHVPWTFGGGTELEIK |  |  |  |  |  | no binding | binds | 0.431 | 0.000166 | 386000 |
| Mouse hybridoma clone 22E11 (antibody, V domains shown, Mouse antibody; also called m22E11; 250.180.2.22E11) VH: QVQLKESGPDLVAPSQSLSITCTVSGFSLTSYGVHWVRQPPGKGLEWLVVIWSDGSTTYNSALKSRLTISKDNSKSQVFLKMNSLQTDDTAMYYCARQGGYRYDDAMDYWGQGTSVAVSS VL: DIVLTQSPASLAVSLGQRATISCKASQSVDYDGNSYVNWYQQKPGQPPKLLIYAASNLESGIPARFSGSGSGTDFTLNIHPVEEEDAATYYCQQSNEDPYTFGGGTKLEIK |  |  |  |  |  | binds | binds | 1.5 | 0.000334 | 223000 |

Reference: patent publication US20200190192A1 (SUTRO BIOPHARMA, published 2020)
